In paper PMC11626796, “Versican binds collagen via its G3 domain and regulates the organization and mechanics of collagenous matrices” (The Journal of Biological Chemistry, 2024):

What follows are binders tested against T1, Rat tail type I telo-collagen (rat, UniProt P02454 152-1207; P02466 86-1125) (assay: ELISA; solid-phase binding assay: proteoglycan or versican domain coated on a 96-well plate (0.25 ug/ml; 0.05-1 ug/ml in Fig. 2A) at 4 C overnight, blocked with 3% BSA in TTBS or casein; rat tail type I collagen 0.1-5 ug/ml in 1% BSA/PBS overnight at RT; detected with biotin-conjugated anti-collagen I antibody, streptavidin-HRP and TMB; Kd from Scatchard plot). Details: both partners purified.
T1 construct: Type I collagen alpha-1 chain, rat tail telo-collagen; Type I collagen alpha-2 chain, rat tail telo-collagen; Extracted from tissue; Telopeptides are kept (telo-collagen); also called type I collagen; full-length collagen; source: bought: Corning (rat tail)
T1 sequence (P02454 152-1207, chain 1 of 2): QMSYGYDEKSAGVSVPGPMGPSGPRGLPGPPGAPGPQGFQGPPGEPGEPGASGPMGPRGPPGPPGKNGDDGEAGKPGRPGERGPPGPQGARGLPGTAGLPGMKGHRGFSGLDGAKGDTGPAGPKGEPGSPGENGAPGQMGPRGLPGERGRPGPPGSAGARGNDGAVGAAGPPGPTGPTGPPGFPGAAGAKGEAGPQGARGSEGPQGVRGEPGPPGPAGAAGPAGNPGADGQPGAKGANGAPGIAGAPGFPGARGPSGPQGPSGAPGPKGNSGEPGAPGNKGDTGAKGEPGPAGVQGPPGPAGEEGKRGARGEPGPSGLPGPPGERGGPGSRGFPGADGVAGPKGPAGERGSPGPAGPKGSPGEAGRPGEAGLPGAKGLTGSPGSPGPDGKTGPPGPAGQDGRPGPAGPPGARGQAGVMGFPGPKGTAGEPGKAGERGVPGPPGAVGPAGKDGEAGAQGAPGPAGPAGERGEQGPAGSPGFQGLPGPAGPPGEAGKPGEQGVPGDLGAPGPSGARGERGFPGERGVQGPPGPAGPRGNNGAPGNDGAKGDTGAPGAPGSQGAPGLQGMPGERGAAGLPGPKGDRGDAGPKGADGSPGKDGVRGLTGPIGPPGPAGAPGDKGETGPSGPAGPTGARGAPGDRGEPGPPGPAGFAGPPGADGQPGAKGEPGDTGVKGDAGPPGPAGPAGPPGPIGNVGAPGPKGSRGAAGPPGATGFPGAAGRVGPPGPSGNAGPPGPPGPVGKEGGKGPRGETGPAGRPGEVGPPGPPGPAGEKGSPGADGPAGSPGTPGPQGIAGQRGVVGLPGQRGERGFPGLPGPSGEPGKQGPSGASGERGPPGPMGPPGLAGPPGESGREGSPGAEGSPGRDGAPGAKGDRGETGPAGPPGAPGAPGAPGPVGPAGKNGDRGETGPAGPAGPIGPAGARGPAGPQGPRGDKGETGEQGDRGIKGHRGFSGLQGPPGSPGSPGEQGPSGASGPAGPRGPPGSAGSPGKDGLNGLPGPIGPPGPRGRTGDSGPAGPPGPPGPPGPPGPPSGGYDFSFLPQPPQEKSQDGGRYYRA
T1 sequence (P02466 86-1125, chain 2 of 2): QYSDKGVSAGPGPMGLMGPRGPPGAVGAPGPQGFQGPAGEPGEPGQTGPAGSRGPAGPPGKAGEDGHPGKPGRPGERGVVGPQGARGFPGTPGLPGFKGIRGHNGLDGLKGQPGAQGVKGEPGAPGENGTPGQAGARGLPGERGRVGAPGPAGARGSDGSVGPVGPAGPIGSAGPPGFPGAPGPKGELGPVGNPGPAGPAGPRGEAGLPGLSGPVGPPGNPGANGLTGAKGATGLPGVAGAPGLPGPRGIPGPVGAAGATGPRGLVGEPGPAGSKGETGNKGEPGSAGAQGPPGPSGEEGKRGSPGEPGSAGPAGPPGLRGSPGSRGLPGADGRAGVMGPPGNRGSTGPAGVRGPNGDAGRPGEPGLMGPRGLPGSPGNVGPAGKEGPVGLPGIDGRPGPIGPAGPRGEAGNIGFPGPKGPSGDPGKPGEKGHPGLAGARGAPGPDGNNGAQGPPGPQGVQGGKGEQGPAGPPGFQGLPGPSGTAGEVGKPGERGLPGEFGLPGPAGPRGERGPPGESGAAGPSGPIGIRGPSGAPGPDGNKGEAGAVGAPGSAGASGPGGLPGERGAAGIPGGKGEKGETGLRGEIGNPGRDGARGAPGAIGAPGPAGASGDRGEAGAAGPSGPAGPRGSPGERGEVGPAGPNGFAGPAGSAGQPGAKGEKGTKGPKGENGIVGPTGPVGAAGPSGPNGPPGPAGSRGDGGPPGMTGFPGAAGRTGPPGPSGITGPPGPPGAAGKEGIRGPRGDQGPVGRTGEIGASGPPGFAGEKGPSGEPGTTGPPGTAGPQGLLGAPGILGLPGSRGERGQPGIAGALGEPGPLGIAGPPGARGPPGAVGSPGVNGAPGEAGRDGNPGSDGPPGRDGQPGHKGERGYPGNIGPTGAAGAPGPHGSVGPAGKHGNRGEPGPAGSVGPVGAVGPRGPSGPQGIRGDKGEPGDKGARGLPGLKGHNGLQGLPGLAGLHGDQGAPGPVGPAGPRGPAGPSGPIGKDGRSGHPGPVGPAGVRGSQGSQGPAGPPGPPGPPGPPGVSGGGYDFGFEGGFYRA

Row | Binder | Kd [nM]
1 | Recombinant human versican isoform V3 (natural protein, Versican isoform V3, human; contains only the N-terminal G1 and C-terminal G3 domains and lacks the GAG domains; also called V3 isoform; source: bought: R&D Systems) not shown | 0.7
2 | Recombinant human versican G1 domain (domain or fragment, Limits taken by convention: mature N-terminus through Ig-like V, Link 1 and Link 2 (Abcam ab152303 limits not given); tag omitted) not shown | 0.9
3 | Recombinant human versican G3 domain (domain or fragment) not shown | 3.2
